Laboratory results: IntAct's records for PubMed 21763699

B1: Caskin-1 (Homo sapiens), Q8WXD9 (parent)
chain: MGKEQELVQAVKAEDVGTAQRLLQRPRPGKAKLLGSTKKINVNFQDPDGFSALHHAALNGNTELISLLLEAQAAVDIKDNKGMRPLHYAAWQGRKEPMKLVLKAGSAVNIPSDEGHIPLHLAAQHGHYDVSEMLLQHQSNPCMVDNSGKTPLDLACEFGRVGVVQLLLSSNMCAALLEPRPGDATDPNGTSPLHLAAKNGHIDIIRLLLQAGIDINRQTKSGTALHEAALCGKTEVVRLLLDSGINAHVRNTYSQTALDIVHQFTTSQASREIKQLLREASAALQVRATKDYCNNYDLTSLNVKAGDIITVLEQHPDGRWKGCIHDNRTGNDRVGYFPSSLGEAIVKRAGSRAGTEPSLPQGSSSSGPSAPPEEIWVLRKPFAGGDRSGSISGMAGGRGSGGHALHAGSEGVKLLATVLSQKSVSESGPGDSPAKPPEGSAGVARSQPPVAHAGQVYGEQPPKKLEPASEGKSSEAVSQWLTAFQLQLYAPNFISAGYDLPTISRMTPEDLTAIGVTKPGHRKKIAAEISGLSIPDWLPEHKPANLAVWLSMIGLAQYYKVLVDNGYENIDFITDITWEDLQEIGITKLGHQKKLMLAVRKLAELQKAEYAKYEGGPLRRKAPQSLEVMAIESPPPPEPTPADCQSPKMTTFQDSELSDELQAAMTGPAEVGPTTEKPSSHLPPTPRATTRQDSSLGGRARHMSSSQELLGDGPPGPSSPMSRSQEYLLDEGPAPGTPPREARPGRHGHSIKRASVPPVPGKPRQVLPPGTSHFTPPQTPTKTRPGSPQALGGPHGPAPATAKVKPTPQLLPPTERPMSPRSLPQSPTHRGFAYVLPQPVEGEVGPAAPGPAPPPVPTAVPTLCLPPEADAEPGRPKKRAHSLNRYAASDSEPERDELLVPAAAGPYATVQRRVGRSHSVRAPAGADKNVNRSQSFAVRPRKKGPPPPPPKRSSSALASANLADEPVPDAEPEDGLLGVRAQCRRASDLAGSVDTGSAGSVKSIAAMLELSSIGGGGRAARRPPEGHPTPRPASPEPGRVATVLASVKHKEAIGPGGEVVNRRRTLSGPVTGLLATARRGPGESADPGPFVEDGTGRQRPRGPSKGEAGVEGPPLAKVEASATLKRRIRAKQNQQENVKFILTESDTVKRRPKAKEREAGPEPPPPLSVYHNGTGTVRRRPASEQAGPPELPPPPPPAEPPPTDLAHLPPLPPPEGEARKPAKPPVSPKPVLTQPVPKLQGSPTPTSKKVPLPGPGSPEVKRAHGTPPPVSPKPPPPPTAPKPVKAVAGLPSGSAGPSPAPSPARQPPAALAKPPGTPPSLGASPAKPPSPGAPALHVPAKPPRAAAAAAAAAAAPPAPPEGASPGDSARQKLEETSACLAAALQAVEEKIRQEDAQGPRDSAAEKSTGSILDDIGSMFDDLADQLDAMLE
B2: Peripheral plasma membrane protein CASK (Homo sapiens), O14936 (parent)
chain: MADDDVLFEDVYELCEVIGKGPFSVVRRCINRETGQQFAVKIVDVAKFTSSPGLSTEDLKREASICHMLKHPHIVELLETYSSDGMLYMVFEFMDGADLCFEIVKRADAGFVYSEAVASHYMRQILEALRYCHDNNIIHRDVKPHCVLLASKENSAPVKLGGFGVAIQLGESGLVAGGRVGTPHFMAPEVVKREPYGKPVDVWGCGVILFILLSGCLPFYGTKERLFEGIIKGKYKMNPRQWSHISESAKDLVRRMLMLDPAERITVYEALNHPWLKERDRYAYKIHLPETVEQLRKFNARRKLKGAVLAAVSSHKFNSFYGDPPEELPDFSEDPTSSGLLAAERAVSQVLDSLEEIHALTDCSEKDLDFLHSVFQDQHLHTLLDLYDKINTKSSPQIRNPPSDAVQRAKEVLEEISCYPENNDAKELKRILTQPHFMALLQTHDVVAHEVYSDEALRVTPPPTSPYLNGDSPESANGDMDMENVTRVRLVQFQKNTDEPMGITLKMNELNHCIVARIMHGGMIHRQGTLHVGDEIREINGISVANQTVEQLQKMLREMRGSITFKIVPSYRTQSSSCERDSPSTSRQSPANGHSSTNNSVSDLPSTTQPKGRQIYVRAQFEYDPAKDDLIPCKEAGIRFRVGDIIQIISKDDHNWWQGKLENSKNGTAGLIPSPELQEWRVACIAMEKTKQEQQASCTWFGKKKKQYKDKYLAKHNAVFDQLDLVTYEEVVKLPAFKRKTLVLLGAHGVGRRHIKNTLITKHPDRFAYPIPHTTRPPKKDEENGKNYYFVSHDQMMQDISNNEYLEYGSHEDAMYGTKLETIRKIHEQGLIAILDVEPQALKVLRTAEFAPFVVFIAAPTITPGLNEDESLQRLQKESDILQRTYAHYFDLTIINNEIDETIRHLEEAVELVCTAPQWVPVSWVY
B3: Peripheral plasma membrane protein CASK (Homo sapiens), O14936 (parent)
chain: B2 chain
partner: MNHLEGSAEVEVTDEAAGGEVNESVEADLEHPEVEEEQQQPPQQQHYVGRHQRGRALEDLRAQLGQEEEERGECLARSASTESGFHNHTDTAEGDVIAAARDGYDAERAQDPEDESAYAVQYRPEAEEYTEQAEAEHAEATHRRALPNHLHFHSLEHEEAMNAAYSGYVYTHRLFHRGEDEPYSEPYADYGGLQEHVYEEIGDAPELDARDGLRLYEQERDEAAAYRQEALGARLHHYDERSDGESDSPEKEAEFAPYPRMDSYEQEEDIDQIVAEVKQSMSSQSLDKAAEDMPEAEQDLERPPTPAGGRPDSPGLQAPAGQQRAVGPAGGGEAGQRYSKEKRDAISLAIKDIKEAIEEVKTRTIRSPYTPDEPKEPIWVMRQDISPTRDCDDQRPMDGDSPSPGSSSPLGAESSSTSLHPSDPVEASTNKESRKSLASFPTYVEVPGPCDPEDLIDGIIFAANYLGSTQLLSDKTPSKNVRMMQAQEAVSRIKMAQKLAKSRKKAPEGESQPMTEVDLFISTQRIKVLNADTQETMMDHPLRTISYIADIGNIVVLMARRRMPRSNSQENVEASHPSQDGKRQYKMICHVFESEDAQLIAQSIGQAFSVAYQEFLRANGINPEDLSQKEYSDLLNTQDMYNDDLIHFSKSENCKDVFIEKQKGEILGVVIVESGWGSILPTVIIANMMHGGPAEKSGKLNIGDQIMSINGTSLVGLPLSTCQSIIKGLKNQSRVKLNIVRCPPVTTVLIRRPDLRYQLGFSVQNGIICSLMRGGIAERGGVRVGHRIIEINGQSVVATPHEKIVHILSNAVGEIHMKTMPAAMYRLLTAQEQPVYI

Variants of: B1
Details: with cskp_human CASK
With I375A;W376A;V377A the “effect of a mutation on the interaction” value was “disrupting interaction”. In the case of L378A;R379A;K380A, the “effect of a mutation on the interaction” value is reported as “disrupting interaction”.

Variants of: B1
Details: with cskp_human CASK, O14936
For I375A, the “effect of a mutation on the interaction” value was “disrupting interaction”. With W376A the “effect of a mutation on the interaction” value was “disrupting interaction”. In the case of V377A, the “effect of a mutation on the interaction” value is reported as “decreasing interaction”. With R379A the “effect of a mutation on the interaction” value was “decreasing interaction”.

Variants of: B2
Details: with tiam1_human TIAM1, Q13009
Sequence of tiam1_human TIAM1, Q13009 (Q13009 whole entry): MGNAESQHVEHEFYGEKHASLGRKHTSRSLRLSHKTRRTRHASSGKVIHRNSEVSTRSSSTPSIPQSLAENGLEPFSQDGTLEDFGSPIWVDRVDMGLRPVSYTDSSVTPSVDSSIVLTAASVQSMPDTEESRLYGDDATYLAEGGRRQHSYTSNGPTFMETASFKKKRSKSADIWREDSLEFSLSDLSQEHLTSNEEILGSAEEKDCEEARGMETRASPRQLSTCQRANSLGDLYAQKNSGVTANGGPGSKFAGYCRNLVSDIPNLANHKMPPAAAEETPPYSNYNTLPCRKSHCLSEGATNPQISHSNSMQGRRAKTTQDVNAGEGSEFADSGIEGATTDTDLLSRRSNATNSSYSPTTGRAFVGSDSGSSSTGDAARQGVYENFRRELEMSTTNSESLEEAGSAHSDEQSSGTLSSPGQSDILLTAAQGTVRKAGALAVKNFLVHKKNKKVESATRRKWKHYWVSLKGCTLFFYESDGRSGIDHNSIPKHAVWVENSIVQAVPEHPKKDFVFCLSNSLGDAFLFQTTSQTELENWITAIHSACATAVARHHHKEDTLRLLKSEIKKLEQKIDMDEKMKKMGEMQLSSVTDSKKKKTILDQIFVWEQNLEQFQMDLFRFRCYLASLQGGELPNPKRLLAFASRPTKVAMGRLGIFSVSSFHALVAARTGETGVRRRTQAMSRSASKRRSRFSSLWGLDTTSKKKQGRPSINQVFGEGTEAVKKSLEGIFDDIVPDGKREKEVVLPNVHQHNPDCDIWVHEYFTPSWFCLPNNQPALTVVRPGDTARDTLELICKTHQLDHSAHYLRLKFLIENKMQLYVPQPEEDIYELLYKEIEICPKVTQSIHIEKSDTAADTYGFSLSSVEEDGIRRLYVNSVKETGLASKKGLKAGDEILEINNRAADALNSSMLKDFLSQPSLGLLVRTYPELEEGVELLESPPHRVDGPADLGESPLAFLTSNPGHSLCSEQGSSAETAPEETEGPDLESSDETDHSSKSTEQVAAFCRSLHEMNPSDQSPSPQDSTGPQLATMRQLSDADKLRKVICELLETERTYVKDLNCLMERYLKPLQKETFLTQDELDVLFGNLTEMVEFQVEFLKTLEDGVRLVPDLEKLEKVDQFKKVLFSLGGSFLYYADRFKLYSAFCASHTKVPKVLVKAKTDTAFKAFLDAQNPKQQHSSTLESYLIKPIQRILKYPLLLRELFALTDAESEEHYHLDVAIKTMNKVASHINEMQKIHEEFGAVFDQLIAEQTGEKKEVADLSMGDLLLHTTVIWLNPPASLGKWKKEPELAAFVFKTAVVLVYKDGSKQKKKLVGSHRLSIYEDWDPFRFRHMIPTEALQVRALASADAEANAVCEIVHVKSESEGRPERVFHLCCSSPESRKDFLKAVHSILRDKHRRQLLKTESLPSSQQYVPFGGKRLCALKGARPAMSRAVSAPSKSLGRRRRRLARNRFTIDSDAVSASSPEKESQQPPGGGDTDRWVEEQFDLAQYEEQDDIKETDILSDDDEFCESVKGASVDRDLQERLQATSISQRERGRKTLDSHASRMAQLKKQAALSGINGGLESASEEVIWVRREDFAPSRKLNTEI
V117D was tested, and the “effect of a mutation on the interaction” value was “disrupting interaction”. For V117Q, the “effect of a mutation on the interaction” value was “disrupting interaction”.

Variants of: B2
Details: with cski1_human CASKIN1, Q8WXD9
With V117D the “effect of a mutation on the interaction” value was “disrupting interaction”. V117Q was tested, and the “effect of a mutation on the interaction” value was “disrupting interaction”.

Variants of: B3
Details: with apba1_human APBA1, Q02410
For V117D, the “effect of a mutation on the interaction” value was “disrupting interaction”. With V117Q the “effect of a mutation on the interaction” value was “disrupting interaction”.
